T1: FrzCD-(His)6 (Myxococcus xanthus, UniProt P43500 1-417)
T1 sequence: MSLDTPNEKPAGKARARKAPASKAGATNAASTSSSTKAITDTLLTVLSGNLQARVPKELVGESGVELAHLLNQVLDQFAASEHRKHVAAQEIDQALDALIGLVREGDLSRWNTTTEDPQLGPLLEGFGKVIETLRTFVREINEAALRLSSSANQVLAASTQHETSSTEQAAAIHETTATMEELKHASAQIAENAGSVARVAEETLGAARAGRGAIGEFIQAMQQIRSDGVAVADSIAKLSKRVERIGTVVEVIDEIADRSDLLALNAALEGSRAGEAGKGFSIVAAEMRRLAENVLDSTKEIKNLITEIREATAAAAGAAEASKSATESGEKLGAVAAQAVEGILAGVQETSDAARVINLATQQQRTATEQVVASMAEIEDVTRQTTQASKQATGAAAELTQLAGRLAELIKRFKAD

B1: Oligo70 (dsDNA)
DNA 1: CTTGCAGTAGAGCTGACCATGATTACGCCATCAGCAGCTCCAGGTCGTACCTCCAGCTACCAATCCCCG
DNA 2: CGGGGATTGGTAGCTGGAGGTACGACCTGGAGCTGCTGATGGCGTAATCATGGTCAGCTCTACTGCAAG
B2: C-terminal-tagged FrzCD-(His)6 (receptor, Myxococcus xanthus, UniProt P43500 1-417, looked up)
chain: T1 sequence
notes: FrzCD, cytoplasmic chemoreceptor (MCP) of the Frz chemosensory system of Myxococcus xanthus; the names of the deletion mutants (Δ131–417) imply 417 residues; also called FrzCD-H6; 6His-FrzCD (as called in the results for this experiment); source: E. coli BL21-AI, purified (HisTrap FF, MonoQ ion exchange)

Experiments:
FrzCD-(His)6 = molecular target: T1, FrzCD-(His)6; assay: EMSA; 300 nM DNA; EMSA Fig 3: 10 mM Tris-HCl pH 8, 60 mM NaCl, 10% glycerol, 4 C, 40 min; EMSA S4 Fig: 50 mM Tris pH 7.4, 50 mM NaCl, 1 mM DTT, 10% glycerol, 25 C, 20 min; BLI: PBS pH 7.5, 0.001% Tween-20, 25 C (6His-FrzCDΔ1-130 used as reference subtraction); details: protein: recombinant; tags: C-terminal 6His; chain copies: 2; blunt
[1] = molecular target: the molecule itself; assay: SEC-MALS; 100 μl of 2 mg/ml (45 μM) FrzCD injected on a BioRad EnRich650 column in 50 mM Tris, 50 mM NaCl, pH 8.0, 0.4 ml/min; Wyatt Dawn Heleos II, Debye model

Binder | binding result (FrzCD-(His)6) | stoichiometry N [1]
B1 | binds | 
B2 |  | 2

From paper PMC5716589, “The nucleoid as a scaffold for the assembly of bacterial signaling complexes” (PLoS Genetics, 2017)
